In US12702694B2, “Methods for identification, assessment, prevention, and treatment of metabolic disorders using SLIT2” (Dana-Farber Cancer Institute, Inc., priority 2015, dated 2026):

Key:
[1] = Plasma cholesterol, triglycerides and insulin; assay type: in vivo, Mus musculus; details: 7 days post-injection
Description: Glucose tolerance tests were performed on mice 7 days post-injection with adenovirus. […] Animals were fasted overnight and then received intraperitoneal glucose at […]. Energy expenditure was analyzed using a Comprehensive Lab Animal Monitoring System (Columbus Instruments). Cold exposure and thermoneutrality experiments were performed in Balb/c mice at 4° C. or 30° C., respectively. Total levels of cholesterol, free fatty acids, triglycerides and insulin were measured at the Core Facility at Joslin Diabetes Center.

primary brown fat cells = experiment: Thermogenic gene expression in primary brown fat cells with adenoviral overexpression; assay type: cell-based, Mus musculus; details: Slit2-C vs LacZ virus, day 7; FIG. 6B
Description: Inguinal and brown stromal-vascular fractions were obtained from 6 weeks old male or newborn mice (postnatal days 5-10) for white and brown fat cultures, respectively. Inguinal fat tissue was dissected and washed with PBS, minced and digested for 45 min at 37° C. in PBS containing 10 mM CaCl2), 2.4 U/ml dispase II (Roche) and 10 mg/ml collagenase D (Roche). Brown fat tissue was dissected, washed with PBS, minced and digested for 45 min at 37° C. in PBS containing 1.3 mM CaCl2, 123 mM NaCl, 5 mM KCl, 5.0 mM glucose, 100 mM HEPES, 4% BSA and 1.5 mg/ml collagenase B (Roche). Digested tissue was filtered through a 100-μm cell strainer and centrifuged at 600 g for 10 min. […] For adenoviral overexpression of Slit2-FL, Slit2-N, Slit2-C, LacZ or Cre, virus was added at day 2 of differentiation at a titer of 10^8 particles/well and cells were analyzed at day 6-7. […]
RNA was extracted from cultured cells or frozen tissue samples using TRIzol®, purified with QIAGEN RNeasy® minicolumns. Normalized RNA was reversed transcribed using a high-capacity cDNA reverse transcription lot (Applied Biosystems) and cDNA was analyzed by qRT-CPR. Relative mRNA levels were calculated using the comparative CT method and normalized to cyclophilin […]. […]

[2] = test system: inguinal white fat tissue and brown fat tissue; experiment: Tissue respiration (Clark electrode) of minced adipose tissue; assay type: in vivo, Mus musculus; details: day 7 after adenovirus injection
Description: Tissue respiration was performed using a Clark electrode (Stathkelvin Instruments). Freshly isolated tissues were dissected from mice treated with LacZ or Slit2-C adenovirus for 7 days. Equally sized pieces of tissue were minced and placed in respiration buffer containing PBS supplemented with 2% (w/v) bovine serum albumin, 1% (w/v) glucose, and 1 mM Na pyruvate. Oxygen (O2) consumption was normalized to tissue weight. Cellular oxygen consumption rates were determined using an XF24 Extracellular Flux Analyzer (Seahorse Biosciences). Primary brown fat adipocytes were seeded at 15,000 cells/well, differentiation was induced the following day as previously described, and the cells were analyzed on day 5. On the day of analysis, the cells were washed once with Seahorse respiration buffer (8.3 g/l DMEM, 1.8 g/l NaCl, 1 mM pyruvate, 20 mM glucose, pen/strep), placed in 0.5 ml Seahorse respiration buffer, and incubated in a C02-free incubator for 1 hr. Port injection solutions were prepared as follows: oligomycin (1 μM final concentration), norepinephrine (1 μM final concentration), FCCP (0.2 μM final concentration), and rotenone (3 μM final concentration). Each cycle consisted of the following: mix 4 min, wait 0 min, and measure 2 min. Data are presented as S.E.M.

B1: Slit2-C: ~50 kDa C-terminal cleavage fragment of Slit2 beginning at TSP (SEQ ID NO: 22); adenovirally expressed or purified FLAG-tagged protein (protein, listed as Homo sapiens)
chain: TSPCDNFDCQNGAQCIIRINEPICQCLPGYLGEKCEKLVSVNFVNKESYLQIPSAKVRPQTNITLQIATDEDSGILLYKGDKDHIAVELYRGRVRASYDTGSHPASAIYSVETINDGNFHIVELLTLDSSLSLSVDGGSPKVITNLSKQSTLNFDSPLYVGGMPGKNNVASLRQAPGQNGTSFHGCIRNLYINSELQDFRKMPMQTGILPGCEPCHKKVCAHGMCQPSSQSGFTCECEEGWMGPLCDQRTNDPCLGNKCVHGTCLPINAFSYSCKCLEGHGGVLCDEEEDLFNPCQMIKCKHGKCRLSGVGQPYCECNSGFTGDSCDREISCRGERIRDYYQKQQGYAACQTTKKVSRLECRGGCAGGQCCGPLRSKRRKYSFECTDGSSFVDEVEKVVKCGCARCAS
modifications: FLAG tag
notes: adenovirally expressed or purified FLAG-tagged protein
total plasma cholesterol ([1]; FIG. 9G): not affected
plasma triglycerides ([1]; FIG. 9H): not affected
non-fasting insulin levels ([1]; FIG. 9I): not affected
thermogenic gene expression response of primary brown fat cells (primary brown fat cells): responded stronger
O2 consumption of inguinal tissue ([2]; did not reach significance): elevated
O2 consumption of BAT ([2]; reached significance): elevated
